Source: US7041642B1, “Fluorescent bombesin-like peptides” (PerkinElmer LAS, Inc., priority 1995, dated 2006)
Values belong to the molecule of their own block, whether it stands above or below them. Ends that are not written are not given here. fluorescein = fluorescein label (light-emitting moiety) attached to the peptide

What was measured:
BB1, BB2, BB3 = test: Non-selective radioligand displacement binding, rat cerebral cortex / brain neurons
Description: Referring now to FIG. 4, a fluoresceinyl-NMC peptide with the amino aid sequence […]NH2 (SEQ ID NO:4) was tested to determine its affinity for NMC receptor sites. The fluoresceinyl-NMC peptide compound absorbs light maximally at 494 nm and features an emission spectrum centered around 518 nm. […] The IC50 is related to the binding constant Ki by the formula IC50=Ki (1+FL/Kd), where FL is the concentration of the free labeled ligand and Kd is the dissociation constant for the labeled ligand.
(§1) All experimental results were obtained by displacing radiolabeled bombesin from the designated receptor, except for the results obtained for GRP which used radiolabeled GRP. Other receptors used in binding assays include the NMB receptor, the bombesin-receptor subtype 2 (BB2) and the bombesin receptor subtype 3 (BB3). As mentioned above, the biological activities of fluoresceinyl-NMC as well as fluoresceinyl-GRP compounds were determined in non-selective assay by binding to BB1, BB2 and BB3 expressed by rat brain neurons whereas the biological activities of fluoresceinyl-NMB and [Dphe^6, Ala^11, Phe^13, Nle^14]Bbn(6–14) compounds were determined by using recombinant cells expressing the BB1 (NMB receptor) or BB2 and BB3 receptors respectively.
(§2) Determination of IC50 for labeled peptides. […] In order to fully dissolve the peptide, the sample was reconstituted in 20 uL DMSO, vortexing well to ensure that all powder was completely dissolved, and then adding 0.48 mL of double distilled water. The stock solution was aliquoted to avoid repeated freezing and thawing of peptide. Unused aliquots were stored at −20° C. (protected from light) for maximum 24 hr.
Receptor binding was carried out on tissues of rat cortex homogenate for GRP, recombinant cells expressing BB1 (NMB receptor) for NMB, or recombinant cells expressing BB2 and BB3 for [Dphe^6, Ala^11, Phe^13, Nle^14]Bbn(6–14). […]
(§3) Data for native and labeled peptides were analyzed by non-linear curve fitting. […]

[1] = biological target: bombesin 2 receptor (BB2 or GRP receptor), recombinant cells; test: radioligand displacement, recombinant cells expressing BB2
[2] = biological target: bombesin 3 receptor (BB3 or orphan bombesin receptor), recombinant cells; test: radioligand displacement, recombinant cells expressing BB3
BB1 (NMB receptor) = biological target: T1, BB1 (NMB receptor) (Homo sapiens, UniProt P28336); test: Radioligand displacement binding, recombinant cells expressing BB1 (NMB receptor)
T1 construct: expressed in transfected cells
Description: as §1
as §2, with “hr. […]” for “hr.”
as §3

[3] = biological target: bombesin 1 receptor (BB1 or NMB receptor), recombinant cells; test: radioligand displacement, recombinant cells expressing BB1 (NMB receptor)
[4] = biological target: BB1, BB2 and BB3 expressed by rat brain neurons; test: radioligand displacement (radiolabeled GRP), rat cortex homogenate, non-selective
[5] = biological target: BB1, BB2 and BB3 expressed by rat brain neurons; test: radioligand displacement (radiolabeled bombesin), rat cerebral cortex, non-selective
[6] = biological target: BB1, BB2 and BB3 expressed by rat brain neurons; test: displacement of radiolabeled bombesin, rat cerebral cortex

Sequence of bombesin 3 receptor (BB3 or orphan bombesin receptor), recombinant cells (P32247 whole entry): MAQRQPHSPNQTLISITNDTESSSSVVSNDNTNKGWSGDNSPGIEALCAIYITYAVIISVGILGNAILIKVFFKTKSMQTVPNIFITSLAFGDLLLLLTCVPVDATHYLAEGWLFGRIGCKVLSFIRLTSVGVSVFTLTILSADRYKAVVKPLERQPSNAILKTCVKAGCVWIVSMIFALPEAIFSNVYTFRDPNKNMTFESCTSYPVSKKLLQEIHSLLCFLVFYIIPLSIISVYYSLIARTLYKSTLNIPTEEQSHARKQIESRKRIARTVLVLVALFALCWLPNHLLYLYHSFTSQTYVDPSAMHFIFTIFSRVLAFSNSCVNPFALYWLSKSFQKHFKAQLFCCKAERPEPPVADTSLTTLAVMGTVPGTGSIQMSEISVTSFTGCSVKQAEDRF
T1 sequence (P28336 whole entry): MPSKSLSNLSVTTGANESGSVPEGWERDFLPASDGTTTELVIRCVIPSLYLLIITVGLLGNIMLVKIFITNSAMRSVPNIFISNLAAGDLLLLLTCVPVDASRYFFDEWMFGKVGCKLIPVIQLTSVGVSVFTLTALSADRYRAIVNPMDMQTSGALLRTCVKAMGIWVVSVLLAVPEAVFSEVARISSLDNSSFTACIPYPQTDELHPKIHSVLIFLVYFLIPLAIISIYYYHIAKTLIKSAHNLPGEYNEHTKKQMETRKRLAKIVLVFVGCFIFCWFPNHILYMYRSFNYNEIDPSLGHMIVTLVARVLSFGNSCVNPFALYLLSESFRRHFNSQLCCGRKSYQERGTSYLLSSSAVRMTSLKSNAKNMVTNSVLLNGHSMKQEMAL

Molecule: [Dphe^6, Ala^11, Phe^13, Nle^14]Bbn(6-14) (peptide)
Ki [1]: 0.17 nM | Ki [2]: 23 nM

Molecule: fluoresceinyl-[Dphe^6, Ala^11, Phe^13, Nle^14]Bbn(6-14) (peptide)
Ki [1]: 0.26 nM | Ki [2]: 86 nM

Molecule: fluoresceinyl-NMC peptide, sequence Gly-Asn-His-Trp-Ala-Val-Gly-His-Leu-Met-NH2 (SEQ ID NO:4), fluorescein at N-terminus (fluorescein-GNHWAVGHLM-NH2; listed as Sus scrofa) [Fluo*-NMC]
Ki (BB1, BB2, BB3; displacement of radiolabeled bombesin, BB1, BB2, BB3 of rat brain neurons): 3.2 nM | IC50 (BB1, BB2, BB3; read-out: IC50 (concentration at which 50% of the binding is inhibited), displacement of radiolabeled bombesin, receptors on rat cerebral cortex neurons): 3.2 nM

Molecule: CSCC[C@H](NC(=O)[C@H](Cc1ccccc1)NC(=O)[C@H](Cc1cnc[nH]1)NC(=O)CNC(=O)[C@@H](NC(=O)[C@H](C)NC(=O)[C@H](Cc1c[nH]c2ccccc12)NC(=O)[C@H](CC(C)C)NC(=O)[C@H](CC(N)=O)NC(=O)CN)[C@@H](C)O)C(N)=O [NMB]
Ki (BB1 (NMB receptor)): 0.1 nM

Continued, values first:

Ki (BB1, BB2, BB3; displacement of radiolabeled GRP, BB1, BB2, BB3, rat cortex homogenate): 2 nM
Molecule: VPLPAGGGTVLTKMYPRGNHWAVGHLM [GRP]

Ki [3]: 0.1 nM
B1: NMB (peptide)
peptide: GNLWATGHFM-NH2

Ki [4]: 32 nM
B2: fluoresceinyl-GRP (peptide)
peptide: {fluorescein (carboxylic form)}-VPLPAGGGTVLTKMYPRGNHWAVGHLM-NH2

Ki [5]: 3.2 nM | IC50 [6]: 3.2 nM
B3: fluoresceinyl-NMC peptide (peptide)
peptide: {fluorescein (carboxylic form)}-GNHWAVGHLM-NH2

Ki [3]: 7 nM
B4: fluoresceinyl-NMB (peptide)
peptide: {fluorescein (carboxylic form)}-GNLWATGHFM-NH2

Ki [4]: 2 nM
B5: GRP (peptide)
peptide: VPLPAGGGTVLTKMYPRGNHWAVGHLM-NH2
